# Literature values as cited in PMC4540356 (Thrombosis and haemostasis, 2010).
# B1: nicotinomide phosphoribosyltransferase/pre-B cell colony-enhancing factor (protein, UniProt P43490 1-491, looked up)
# Nicotinamide …: MNPAAEAEFNILLATDSYKVTHYKQYPPNTSKVYSYFECREKKTENSKLRKVKYEETVFYGLQYILNKYLKGKVVTKEKIQEAKDVYKEHFQDDVFNEKGWNYILEKYDGHLPIEIKAVPEGFVIPRGNVLFTVENTDPECYWLTNWIETILVQSWYPITVATNSREQKKILAKYLLETSGNLDGLEYKLHDFGYRGVSSQETAGIGASAHLVNFKGTDTVAGLALIKKYYGTKDPVPGYSVPAAEHSTITAWGKDHEKDAFEHIVTQFSSVPVSVVSDSYDIYNACEKIWGEDLRHLIVSRSTQAPLIIRPDSGNPLDTVLKVLEILGKKFPVTENSKGYKLLPPYLRVIQGDGVDINTLQEIVEGMKQKMWSIENIAFGSGGGLLQKLTRDLLNCSFKCSYVVTNGLGINVFKDPVADPNKRSKKGRLSLHRTPAGNFVTLEEGKGDLEEYGQDLLHTVFKNGKVTKSYSFDEIRKNAQLNIELEAAHH
# Tested on: endothelial cells
# Details: via activation of ERK1/2 and Akt, ref [39]
molecule,measurement,value
B1,peNOS and NO induction in endothelial cells,induce peNOS and NO in endothelial cells
